Data on two molecules can be found in patent US20100111957A1 (TECHNION RESEARCH AND DEVELOPMENT FOUNDATION, published 2010).

Test [1] deals with T1, recombinant biotinylated single-chain HLA-A2/pp65 495-503 complex (human; cytomegalovirus (CMV)).
Test [2] addresses T1, recombinant biotinylated single-chain …. In words: SPR, Biacore 2000; biotinylated HLA-A2/pp65 on streptavidin chip. For orientation: Surface plasmon resonance follows binding to a sensor surface in real time, without labels.

B1: H9 Fab (soluble recombinant Fab, monomer) (Fab, V domains shown)
VH: EVQLVQSGAEVKKPGSSVKVSCKASGGTFSSYAISWVRQAPGQGLEWMGGIIPIFGTANYAQKFQGRVTITADESTSTAYMELSSLRSEDTAVYYCARGDLYYYDSSGYPRYYFDYWGQGTLVTVSS
VL: ETTLTQSPGTLSLSPGERATLSCRASQSVSSSYLAWYQQKPGQAPRLVIYGASSRATGIPDRFSGSGSGTDFTLTISRLEPEDFAVYYCQHYSTSPGFTFGQGTKLEIRR
notes: also called Fab H9; H9 Fab monomer
What is called Kd is a measure of binding affinity in units of concentration. What is called koff is the rate constant with which the complex falls apart. As usually defined, the kon is a measure of how fast the partners come together. Regarding B1, in test [1], the Kd was found to be 8 nM. In addition, in test [2], the koff amounted to 0.000879 s⁻¹ and the kon was determined as 105000 M⁻¹ s⁻¹.

B2: H9 whole IgG antibody (H9 Fab-derived IgG1, kappa) (antibody, V domains shown)
VH: B1 VH
VL: B1 VL
notes: also called H9 IgG; H9 IgG Ab
Take B2: the Kd in test [1] was found to be 5 nM. In test [2], the koff amounted to 0.00352 s⁻¹ and the kon amounted to 599000 M⁻¹ s⁻¹.
